Literature values as cited in PMC3817581.

Assays:
Conditions in all cases: not stated in this article
Asp27 = Asp27 (UniProt position 156, PLCGSDNKTYG)
Asp7 = Asp7 (UniProt position 136, AAVSVDCSEYP)
Glu10 = Glu10 (UniProt position 139, SVDCSEYPKPA)
Glu19 = Glu19 (UniProt position 148, PACTLEYRPLC)
Glu43 = Glu43 (UniProt position 172, CNAVVESNGTL)

In the case of “Turkey ovomucoid third domain (OMTKY3) (Meleagris gallopavo)”, the pKa (Asp27) is given as 2.2, the pKa (Asp7) is given as 2.5 and the pKa (Glu10) is given as 4.1. The pKa (Glu19) was 3.2 and the pKa (Glu43) was 4.8.
